Positions of bridges follow the written chain, without caps; N, C: chain ends. No end group written: not given here.
Tests used:
hBMECs = assay: Peptide cytotoxicity assay (XTT); format: cell-based, human; conditions: positive control; hBMECs; untreated = 100% viability
Method: The toxicity of peptides was determined by the XTT test (AppliChem, USA) as per the manufacturer’s instructions. Details are presented in Supplementary Method S15. […]
Cytotoxicity assay. hBMECs were cultured in 96-well TPP tissue culture plates (Sigma) in supplemented EBM-2 medium (Lonza) to obtain ~70% confluency (as described in Supplementary Method S1). The peptides in concentrations of 1 µM, 2 µM, 4 µM, and 6 µM (diluted in 100 µL of EBM-2 medium supplemented only with 10% FBS, 10 mM HEPES and 1 ng/mL bFGF; Sigma) were added and incubated for 24 h at 37°C in a humid atmosphere of 5% CO2. Untreated cells served as a negative control (100% viability). For positive control, cells treated with 0.01% Triton X-100 were used. After incubation, the mixture of XTT and activation reagent (5:0.1 [v/v], 50 µL each well) was added to each well and incubated for an additional 3 h at 37°C in a humid atmosphere of 5% CO2. The absorbance was measured at 450 nm. The assay was performed in replicates. The viability (%) of endothelial cells was calculated using the formula: Cell viability (%) = [(A - xA ) × 100] / (xA -

[1] = target: proteins of hBMECs (human (endogenous in hBMECs)); assay: ELISA; proteins of hBMECs coated into microtiter wells, rDIII (2 µg, printed as 0.15 nM) added without pre-blocking; negative control (no rDIII) subtracted
[2] = target: T1, 12-mer linear peptide LP3 (X12GGGS form of SGVYKVAYDWQH); assay: ELISA; peptides covalently coated through their C-terminus in Nunc CovaLink NH plates (EDC plus sulfo-NHS), blocked with 0.5% BSA in PBS, incubated with rDIII, detected with HisProbe-HRP; negative control (no rDIII) subtracted; conditions: both partners purified
T1 construct: peptide of phage clone LC3; C-terminal linker; source: E. coli SHuffle T5, purified; N-terminal tag cleaved with enterokinase and removed on nickel beads; not shown: His6, N-terminal, cleaved; 28 aa tag, N-terminal, cleaved
T1 peptide: SGVYKVAYDWQHGGGS

[3] = target: T2, 7-mer cyclic peptide CP4 (ACX7CGGGS form of CIHSSTRAC) (disulfide 2-10 (inferred)); assay: as above; conditions: both partners purified
T2 construct: additional alanine at the N-terminus (ACX7CGGGS); peptide of phage clone CC4; C-terminal linker; source: E. coli SHuffle T5, purified; N-terminal tag cleaved with enterokinase and removed on nickel beads; not shown: His6, N-terminal, cleaved; 28 aa tag, N-terminal, cleaved
T2 peptide: ACIHSSTRACGGGS

[4] = target: T3, 7-mer cyclic peptide CP12 (ACX7CGGGS form of CTYENHRTC) (disulfide 2-10 (inferred)); assay: as above; conditions: both partners purified
T3 construct: additional alanine at the N-terminus (ACX7CGGGS); peptide of phage clone CC12; C-terminal linker; source: E. coli SHuffle T5, purified; N-terminal tag cleaved with enterokinase and removed on nickel beads; not shown: His6, N-terminal, cleaved; 28 aa tag, N-terminal, cleaved
T3 peptide: ACTYENHRTCGGGS

[5] = target: T4, 7-mer cyclic peptide CP7 (ACX7CGGGS form of CTNANHYFC) (disulfide 2-10 (inferred)); assay: as above; conditions: both partners purified
T4 construct: additional alanine at the N-terminus (ACX7CGGGS); peptide of phage clone CC7; C-terminal linker; source: E. coli SHuffle T5, purified; N-terminal tag cleaved with enterokinase and removed on nickel beads; not shown: His6, N-terminal, cleaved; 28 aa tag, N-terminal, cleaved
T4 peptide: ACTNANHYFCGGGS

[6] = target: T5, 7-mer cyclic peptide CP15 (ACX7CGGGS form of CDPRHSKFC) (disulfide 2-10 (inferred)); assay: as above; conditions: both partners purified
T5 construct: additional alanine at the N-terminus (ACX7CGGGS); peptide of phage clone CC15; C-terminal linker; source: E. coli SHuffle T5, purified; N-terminal tag cleaved with enterokinase and removed on nickel beads; not shown: His6, N-terminal, cleaved; 28 aa tag, N-terminal, cleaved
T5 peptide: ACDPRHSKFCGGGS

[7] = target: T6, 7-mer cyclic peptide CP16 (ACX7CGGGS form of CLAQSHPLC) (disulfide 2-10 (inferred)); assay: as above; conditions: both partners purified
T6 construct: additional alanine at the N-terminus (ACX7CGGGS); peptide of phage clone CC16; C-terminal linker; also called C16; source: E. coli SHuffle T5, purified; N-terminal tag cleaved with enterokinase and removed on nickel beads; not shown: His6, N-terminal, cleaved; 28 aa tag, N-terminal, cleaved
T6 peptide: ACLAQSHPLCGGGS

[8] = target: T7, 7-mer cyclic peptide CP6 (ACX7CGGGS form of CMQTQRAHC) (disulfide 2-10 (inferred)); assay: as above; conditions: both partners purified
T7 construct: additional alanine at the N-terminus (ACX7CGGGS); peptide of phage clone CC6; C-terminal linker; source: E. coli SHuffle T5, purified; N-terminal tag cleaved with enterokinase and removed on nickel beads; not shown: His6, N-terminal, cleaved; 28 aa tag, N-terminal, cleaved
T7 peptide: ACMQTQRAHCGGGS

[9] = target: T8, 7-mer cyclic peptide CP2 (ACX7CGGGS form of CTKTDVHFC) (disulfide 2-10 (inferred)); assay: as above; conditions: both partners purified
T8 construct: additional alanine at the N-terminus (ACX7CGGGS); peptide of phage clone CC2; C-terminal linker; source: E. coli SHuffle T5, purified; N-terminal tag cleaved with enterokinase and removed on nickel beads; not shown: His6, N-terminal, cleaved; 28 aa tag, N-terminal, cleaved
T8 peptide: ACTKTDVHFCGGGS

Molecule: Triton X-100 [reference compound]
- cell viability (XTT) (hBMECs): < 2.8%

Molecule: recombinant domain III (DIII) of the envelope (E) glycoprotein of West Nile virus (domain or fragment)
- A450 [1]: 1.06

B1: recombinant domain III (DIII) of the envelope (E) glycoprotein of West Nile virus (domain or fragment)
chain: GTTYGVCSKAFKFLGTPADTGHGTVVLELQYTGTDGPCKVPISSVASLNDLTPVGRLVTVNPFVSVATANAKVLIELEPPFGDSYIVVGRGEQQINHHWHK
- A450 [2]: 2.56
- A450 [3]: > 1.9
- A450 [4]: > 1.9
- A450 [5]: > 1.9
- A450 [6]: > 1.9
- A450 [7]: > 1.9
- A450 [8]: > 1.9
- A450 [9]: > 1.9

From publication PMC8505397, “Development of peptides targeting receptor binding site of the envelope glycoprotein to contain the West Nile virus infection” (Scientific Reports, 2021)
